We go through one molecule from article PMC10880428 (Protein Science : A Publication of the Protein Society, 2024).

Data set [1] has as its target T1, EtgA residues 18–152 with C-terminal 6xHis-tag (enteropathogenic Escherichia coli).
T1 chain: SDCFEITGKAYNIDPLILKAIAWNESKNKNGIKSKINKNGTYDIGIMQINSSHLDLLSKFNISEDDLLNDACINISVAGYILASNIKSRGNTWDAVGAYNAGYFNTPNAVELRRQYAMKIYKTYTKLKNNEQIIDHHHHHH
Briefly: differential scanning fluorimetry.

In data set [2] the target is T1, EtgA residues 18–152 with C-terminal …. The data set can be described thus: MST.

B1: EscI peptide comprising EscI residues 66–87 (peptide)
peptide: TAGVSSPEQVLIEEIKKRHLAT
Take B1: the “increase in Tm of EtgA (250 and 500 μM peptide)” value in data set [1] was determined as 2 °C. The Kd in data set [2] amounted to 385 ± 35 µM.

A word on the Kd: it is the equilibrium constant for the complex coming apart. Read a low Kd as a tighter complex.
